According to patent publication US6801029B2, “Microwave dielectric spectroscopy method and apparatus” (Wisconsin Alumni Research Foundation, priority 2001, dated 2004):

Legend:
[1] = Thermal unfolding of RNase A by microwave dielectric spectroscopy (slot antenna s11 log mag, Lorentzian peak positions fitted to 2-state model); assay type: physicochemical
Text: A coaxial-fed slot antenna 25 was manufactured from RO-4002 (Rogers Corporation, Rogers, Conn.) on a LPKF ProtoMat using BoardMaster 3.0 (LPKF Laser & Electronics AG, Germany). The coaxial feed was composed of semi-rigid PE-047SR (Pasternack Enterprises, Irvine, Calif.). The dimensions of the antenna were chosen to yield a resonant frequency of approximately 3 GHz. This frequency was selected to optimize the interaction of microwave radiation with “bound water,” assumed to undergo dispersion at lower frequencies than bulk solution. The active range of the antenna extends from approximately 500 MHz to 6.5 GHz. The antenna was attached to a 0.5 cm Suprasil fused quartz UV/VIS cuvette 21 (Hellma GmbH & Co., Germany).
Microwave measurements were made utilizing as the analyzer 37 a Hewlett-Packard 8720D vector network analyzer (VNA) (Agilent Technologies, Palo Alto, Calif.) set to measure s11. The lowest power range −15 to +5 dBm was used for all experiments. The slot antenna 25 was attached to the VNA 37 using a standard 50 Ω coaxial cable 35. UV/VIS absorption measurements were performed using a Hewlett-Packard 8452A diode-array spectrophotometer with a water-thermostatted cell holder (Agilent Technologies, Palo Alto, Calif.), functioning as the optical spectrometer 28 with detector 32. Both instruments were controlled using LabView (National Instruments Corporation, Austin, Tex.) via a GPIB connection.
Data analysis was performed in one of two ways: 1) Center frequency was determined by fitting spectra at each change of temperature or other environmental conditions to a number of Lorentzian peaks; or 2) Peak amplitude was determined for spectra at each change of temperature or other environmental condition. Commercial software such as Microcal Origin was used for both types of fitting. Data, either center frequency or amplitude, could be then plotted as a function of environmental condition and subjected to further analysis. For thermal unfolding experiments, peak center frequency determination yielded better results, perhaps because many peaks overlap. Peak amplitude determination was more successful for hormone binding experiments, probably because peaks were well-spaced and non-overlapping.
(§1) Bovine pancreatic ribonuclease A (RNase A) was purchased from Sigma (St. Louis, Mo.) and used without further purification. All other reagents were purchased from Fisher Scientific (Pittsburgh, Pa.). Lyophilized protein was dissolved in a solution of 30 mM sodium acetate/acetic acid, 100 mM sodium chloride, pH 4.5, then dialyzed exhaustively before use. Protein concentrations were determined by UV-VIS spectroscopy. The extinction coefficient was taken as 0.72 mg^−1mL cm^−1 at 278 nm. Concentrations of RNase A varied from 0.2 to 1 mg/mL (14.6 to 73.0 μM). The environmental condition of the sample that was changed was temperature. RNase A was unfolded reversibly by increasing the temperature of the sample at a maximum rate of 0.4° C./min. The unfolding reaction was monitored using UV/VIS absorbance at 288 nm.
As with buffer alone, peak positions shift with temperature, and most peaks broaden with increasing temperature.
Spectra were fitted to eight Lorentzian peaks. […] Four peaks, identified in Table 1 below, responded in a sigmoidal fashion characteristic of cooperative unfolding; the remaining peaks increased or decreased monotonically with temperature.

[2] = Thermal unfolding of RNase A monitored by UV/VIS absorbance at 288 nm, two-state model; assay type: physicochemical
Procedure: as §1
The unfolding of RNase A may be observed using UV/VIS absorbance. At low protein concentrations, the absorbance of RNase A follows Beer's Law:
where A(λ) is the absorbance, ε(λ,T) is the extinction coefficient, c is the protein concentration, and l is the path length. For selected proteins, the extinction coefficient ε depends not only on the wavelength λ and the temperature T, but also on the protein conformation. Such a dependence of ε on conformation is called a hyperchromic shift. For RNase A, the maximal hyperchromic shift occurs at approximately 288 nm.
Here, N refers to native protein, U refers to unfolded protein, Tm is the midpoint temperature (at which FN=FU=0.5 and ΔG=0 kcal/mol), ΔHm is the enthalpy at the midpoint temperature, α is the observed signal (in this case, UV/VIS absorbance), and αN and αU are the observed signals for native and unfolded protein, respectively. Since the unfolding of RNase A is a unimolecular reaction, thermodynamic parameters such as enthalpy, free energy, and mid-point temperature are independent of concentration. […] Analysis of unfolding of RNase A yields an average Tm of 58.2° C. and an average ΔHm of 74.9 kcal/mol.
Other researchers have implied that the presence of microwave radiation destabilizes protein, and may enhance rates of folding and unfolding. […] The differences in Tm and ΔHm are within experimental error and are not thought to be significant.

[3] = Lorentzian peak 1 (1.5 GHz at 30° C.)
[4] = Lorentzian peak 4 (3.1 GHz at 30° C.)
[5] = Lorentzian peak 5 (3.5 GHz at 30° C.)
[6] = Lorentzian peak 7 (4.4 GHz at 30° C.)
[7] = simultaneous UV/VIS and microwave measurements

B1: Bovine pancreatic ribonuclease A (protein, UniProt P61823 27-150, looked up)
Ribonuclease pancreatic: KETAAAKFERQHMDSSTSAASSSNYCNQMMKSRNLTKDRCKPVNTFVHESLADVQAVCSQKNVACKNGQTNCYQSYSTMSITDCRETGSSKYPNCAYKTTQANKHIIVACEGNPYVPVHFDASV
notes: Bovine pancreatic ribonuclease A purchased from Sigma, used without further purification
- Tm [1, 3]: 50.4 °C
- ΔHm [1, 3]: 66.0 kcal/mol
- Tm [1, 4]: 58.3 °C
- ΔHm [1, 4]: 161.4 kcal/mol
- Tm [1, 5]: 53.3 °C
- ΔHm [1, 5]: 72.1 kcal/mol
- Tm [1, 6]: 60.9 °C
- ΔHm [1, 6]: 76.8 kcal/mol
- Tm ([1]; fit to all peaks (1, 4, 5, 7)): 55.21 °C
- ΔHm ([1]; fit to all peaks (1, 4, 5, 7)): 54.2 kcal/mol
- Tm ([2]; UV/VIS alone): 58.09 °C
- ΔHm ([2]; UV/VIS alone): 76.8 kcal/mol
- average Tm (midpoint temperature of unfolding) ([2]; average, UV/VIS absorbance 288 nm, 30 mM sodium acetate/acetic acid, 100 mM NaCl, pH 4.5): 58.2 °C
- average ΔHm (enthalpy at midpoint temperature) ([2]; average, UV/VIS absorbance 288 nm, pH 4.5 buffer): 74.9 kcal/mol
- Tm [2, 7]: 58.91 °C
- ΔHm [2, 7]: 65.1 kcal/mol
